Laboratory results: patent publication US20260242478A1 (published 2026)
Where no end group is shown, it is not given here.

Key:
006 PSMA Fab [1] = molecular target: T1, 006 PSMA Fab; test: clonal phage ELISA; biotinylated PSMA Fab on neutravidin plate, bound phage detected with anti-M13-HRP
T1 construct: also called Anti-PSMA Fab
Experimental: (§1) Clonal phage were harvested as crude supernatants and screened via standard ELISAs. […] Prior to the addition of clonal phage. wells were incubated with blocking buffer and PSMA antigen or blocking buffer alone. Without washing or aspirating, clonal phage supernatants were then added to the wells and incubated for a short time. Wells were then washed followed by detection of bound phage using a horse radish conjugated anti-M13 antibody.

006 PSMA Fab [2] = molecular target: T1, 006 PSMA Fab; test: clonal phage ELISA; biotinylated PSMA Fab on neutravidin plate, PSMA antigen as competitor, anti-M13-HRP
Experimental: as §1

006 PSMA Fab [3] = molecular target: T2, 006 PSMA Fab; test: clonal phage ELISA on biotinylated anti-PSMA Fab captured on neutravidin, anti-M13 HRP detection
T2 construct: also called Anti-PSMA Fab
Experimental: as §1

006 PSMA Fab [4] = molecular target: T2, 006 PSMA Fab; test: clonal phage ELISA on captured anti-PSMA Fab; competitor PSMA antigen
Experimental: as §1

PSMA Fab [5] = molecular target: T3, PSMA Fab; test: phage ELISA; biotinylated PSMA Fab on neutravidin plate, blocking buffer alone; bound phage detected with anti-M13-HRP
T3 construct: Used biotinylated and captured on neutravidin plates in the phage ELISA; also called Anti-PSMA Fab; 006 PSMA Fab
Experimental: as §1

PSMA Fab [6] = molecular target: T3, PSMA Fab; test: phage ELISA; biotinylated PSMA Fab on neutravidin plate, pre-incubated with PSMA antigen as competitor; anti-M13-HRP
Experimental: as §1

Row | Binder | Phage binding ELISA signal, Anti-PSMA Fab (006 PSMA Fab [1]) | phage binding ELISA signal (Anti-PSMA Fab, wells pre-incubated with PSMA antigen) (006 PSMA Fab [2]) | Phage binding ELISA signal, Anti-PSMA Fab (PSMA Fab [5]) | Phage binding ELISA signal, Anti-PSMA Fab in presence of PSMA antigen (PSMA Fab [6]) | also measured
1 | QEMTCVPRWMCSGF [Phage-4000] | 0.566 | 0.0832 | – | – | –
2 | ELLHCKPMWMCIGL [Phage-3524] | – | – | – | – | phage binding ELISA signal (006 PSMA Fab [3]): 1.67; phage binding ELISA signal with PSMA antigen present (006 PSMA Fab [4]): 0.0864
3 | ELPVCRPSWMCGGL (also called Peptide-180 library clone) [Phage-3734] | – | – | 1.4 | 0.0603 | –
4 | DYSVCRPAWMCQGF (cysteine pairing not given here; also: fused to phage pIII, also called Peptide-180 library clone) [Phage-3729] | – | – | 1.41 | 0.0699 | –
5 | YPPLCKPEWMCVGL [Phage-3525] | – | – | – | – | phage binding ELISA signal (006 PSMA Fab [3]): 1.67; phage binding ELISA signal with PSMA antigen present (006 PSMA Fab [4]): 0.0714
6 | VQPWCVPAWMCDGL [Phage-3997] | 0.607 | 0.0983 | – | – | –
7 | MDVWCVPTWMCQHL [Phage-3995] | 0.627 | 0.119 | – | – | –
8 | VQRVCVPTWMCDVF [Phage-3999] | 0.584 | 0.07 | – | – | –
9 | VVRHCVPTWMCTGF [Phage-3532] | – | – | – | – | phage binding ELISA signal (006 PSMA Fab [3]): 1.66; phage binding ELISA signal with PSMA antigen present (006 PSMA Fab [4]): 0.102
10 | VNRMCVPVWMCQGF (also called Peptide-180 library clone) [Phage-3739] | – | – | 1.39 | 0.0729 | –
11 | WTPLCKPLWMCQGL (also called Peptide-180 library clone) [Phage-3741] | – | – | 1.39 | 0.16 | –
12 | YSISCVPQWMCEGF (also called Peptide-180 library clone) [Phage-3742] | – | – | 1.39 | 0.0591 | –
13 | DGLICQPSWMCTGL [Phage-4001] | 0.554 | 0.0705 | – | – | –
14 | PSISCTPQWMCFGF [Phage-3521] | – | – | – | – | phage binding ELISA signal (006 PSMA Fab [3]): 1.68; phage binding ELISA signal with PSMA antigen present (006 PSMA Fab [4]): 0.0639
15 | HVTMCSPNWMCWGL [Phage-4006] | 0.485 | 0.0703 | – | – | –
16 | GYVMCEPRWMCEGL [Phage-3528] | – | – | – | – | phage binding ELISA signal (006 PSMA Fab [3]): 1.67; phage binding ELISA signal with PSMA antigen present (006 PSMA Fab [4]): 0.0803
17 | MTNMCRPSWMCAVF [Phage-4002] | 0.551 | 0.108 | – | – | –
18 | HSVHCVPMWMCTGF (also called Peptide-180 library clone) [Phage-3738] | – | – | 1.39 | 0.0781 | –
19 | VSPSCVPPWMCVGF [Phage-3531] | – | – | – | – | phage binding ELISA signal (006 PSMA Fab [3]): 1.66; phage binding ELISA signal with PSMA antigen present (006 PSMA Fab [4]): 0.0791
20 | LLLRCEPTWMCTGF (also called Peptide-180 library clone) [Phage-3740] | – | – | 1.39 | 0.0711 | –
21 | QMITCQPKWMCEGF [Phage-3998] | 0.589 | 0.0852 | – | – | –

Row | Binder | Phage binding ELISA signal, Anti-PSMA Fab (006 PSMA Fab [1]) | phage binding ELISA signal (Anti-PSMA Fab, wells pre-incubated with PSMA antigen) (006 PSMA Fab [2]) | Phage binding ELISA signal, Anti-PSMA Fab (PSMA Fab [5]) | Phage binding ELISA signal, Anti-PSMA Fab in presence of PSMA antigen (PSMA Fab [6]) | also measured
22 | WFRMCEPSWMCEGF [Phage-3527] | – | – | – | – | phage binding ELISA signal (006 PSMA Fab [3]): 1.67; phage binding ELISA signal with PSMA antigen present (006 PSMA Fab [4]): 0.11
23 | DMARCIPAWMCTGF [Phage-3523] | – | – | – | – | phage binding ELISA signal (006 PSMA Fab [3]): 1.68; phage binding ELISA signal with PSMA antigen present (006 PSMA Fab [4]): 0.106
24 | QVKYCIPEWMCSSF (also called Peptide-180 library clone) [Phage-3735] | – | – | 1.4 | 0.0671 | –
25 | ADVRCVPDWMCWGM (also called Peptide-180 library clone) [Phage-3733] | – | – | 1.4 | 0.0602 | –
26 | GTQACVPLWMCEGI [Phage-3996] | 0.62 | 0.0787 | – | – | –
27 | ALLSCVPPWMCLGL [Phage-3522] | – | – | – | – | phage binding ELISA signal (006 PSMA Fab [3]): 1.68; phage binding ELISA signal with PSMA antigen present (006 PSMA Fab [4]): 0.0728
28 | FTARCEPSWMCVGF (also called Peptide-180 library clone) [Phage-3730] | – | – | 1.41 | 0.0626 | –
29 | VVPWCSPAWMCSGF [Phage-3529] | – | – | – | – | phage binding ELISA signal (006 PSMA Fab [3]): 1.67; phage binding ELISA signal with PSMA antigen present (006 PSMA Fab [4]): 0.0752
30 | FTAQCVPLWMCLGF (also called Peptide-180 library clone) [Phage-3736] | – | – | 1.39 | 0.0789 | –
31 | LYKECVPQWMCSGF (also called Peptide-180 library clone) [Phage-3731] | – | – | 1.4 | 0.0798 | –
32 | LTSWCVPQWMCDGL [Phage-4005] | 0.523 | 0.0623 | – | – | –
33 | IMQRCEPLWMCSGL [Phage-4008] | 0.471 | 0.0777 | – | – | –
34 | VSHHCVPAWMCFGL (also called Peptide-180 library clone) [Phage-3737] | – | – | 1.39 | 0.0946 | –
35 | PTSFCRPPWMCEGL [Phage-4007] | 0.475 | 0.0592 | – | – | –
36 | EERICKPQWMCSAF [Phage-3530] | – | – | – | – | phage binding ELISA signal (006 PSMA Fab [3]): 1.66; phage binding ELISA signal with PSMA antigen present (006 PSMA Fab [4]): 0.0804
37 | EVKKCVPAWMCESQ [Phage-4004] | 0.542 | 0.0538 | – | – | –
38 | VQPWCVPSWMCERF (also called Peptide-180 library clone) [Phage-3743] | – | – | 1.39 | 0.312 | –
39 | DIEVCRPHWMCEGF [Phage-4003] | 0.542 | 0.0801 | – | – | –
40 | LIALCKPPWMCEWF [Phage-3526] | – | – | – | – | phage binding ELISA signal (006 PSMA Fab [3]): 1.67; phage binding ELISA signal with PSMA antigen present (006 PSMA Fab [4]): 0.213
41 | TGMACVPWWMCEGF (also called Peptide-180 library clone) [Phage-3732] | – | – | 1.4 | 0.0812 | –
